From article PMC11240982 (2024) come the findings set out here.

To fix the notation:
B2: SHIV_(1157ipd3N4) V3 peptide (305KSISIGPGQAI317) (peptide)
peptide: KSISIGPGQAI

Assay in all cases: BLI
Assay [1] deals with B2.
For assay [2], the target named is 447-52D.
In assay [3] the target is J038.

B1: JT18 (antibody, V domains shown)
VH: EVQLVQSGAEVKRPGESLRISCKTSGYDFTDYWINWVRQMPGKGLEWVGMVYPSDSETAYSPSFRGRVTISADTSISTSYLQWTSLEASDTATYYCARPVSGTFALDVWGRGVLVAVSS
VL: QSVLTQPPSMSGAPGQRVTMSCTGGNSNIGANLYVQWYQQVPGTAPRLLIYEDNQRPSGVSDRFSGSRSGSSASLTITGLQSEDEADYYCQSYDNSLSTVLFGGGTRLTVL
As to B1, the affinity in assay [1], expressed as Kd, was 55.3 nM.

Take B2: the dissociation constant Kd (commonly a measure of binding affinity in units of concentration) in assay [2] came out at 55.6 nM; in assay [3], 1650 nM.
